Assay results: article PMC2171675

Molecular target: neural cell adhesion molecule (NCAM) (mouse (endogenous in brain)) (UniProt P13595)
Assay: co-IP

Chain of UniProt P13595 (P13595 20-1115): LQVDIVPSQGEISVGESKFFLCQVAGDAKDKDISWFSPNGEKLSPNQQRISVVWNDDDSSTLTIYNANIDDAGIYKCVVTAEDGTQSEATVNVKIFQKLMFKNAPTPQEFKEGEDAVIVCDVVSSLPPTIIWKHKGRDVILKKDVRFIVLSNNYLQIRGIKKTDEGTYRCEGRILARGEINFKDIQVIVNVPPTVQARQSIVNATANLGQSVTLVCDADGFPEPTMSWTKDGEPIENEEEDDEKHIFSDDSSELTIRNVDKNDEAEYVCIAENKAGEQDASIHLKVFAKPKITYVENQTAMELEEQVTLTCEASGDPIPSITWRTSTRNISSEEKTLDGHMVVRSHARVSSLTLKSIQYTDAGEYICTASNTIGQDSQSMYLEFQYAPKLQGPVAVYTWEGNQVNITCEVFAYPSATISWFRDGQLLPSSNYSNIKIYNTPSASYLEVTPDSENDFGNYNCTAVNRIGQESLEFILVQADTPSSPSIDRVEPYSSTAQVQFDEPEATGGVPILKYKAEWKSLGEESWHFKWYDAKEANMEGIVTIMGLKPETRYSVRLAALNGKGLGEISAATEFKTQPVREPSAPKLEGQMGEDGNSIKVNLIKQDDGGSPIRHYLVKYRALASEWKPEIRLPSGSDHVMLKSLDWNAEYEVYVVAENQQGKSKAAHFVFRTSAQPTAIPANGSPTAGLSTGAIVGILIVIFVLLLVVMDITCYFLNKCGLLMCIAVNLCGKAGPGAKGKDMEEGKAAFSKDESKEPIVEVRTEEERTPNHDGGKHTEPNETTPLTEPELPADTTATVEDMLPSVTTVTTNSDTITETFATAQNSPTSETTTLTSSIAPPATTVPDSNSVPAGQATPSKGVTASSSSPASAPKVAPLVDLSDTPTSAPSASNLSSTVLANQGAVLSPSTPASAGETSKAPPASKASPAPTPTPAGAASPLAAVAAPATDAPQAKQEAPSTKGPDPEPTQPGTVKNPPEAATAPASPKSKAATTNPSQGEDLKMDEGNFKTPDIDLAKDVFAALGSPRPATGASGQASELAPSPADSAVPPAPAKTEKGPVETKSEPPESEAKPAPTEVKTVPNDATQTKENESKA

reduction of the co-immunoprecipitated complex with 2 mM EDTA against with Ca2+: 60%
Substance: receptor-like protein tyrosine phosphatase RPTPα (natural protein)
